± gives the standard deviation of the averaged measurements.
B1: library; a variant is named by its letters at N, in order (parent)
chain: GCUGUCACCGGUGUAUUACCCUAGUGGUCGACCGGUCUGAUGAGUCUNNNNNNAGACGAAACAGC

How the values were obtained:
hypoxanthine [1] = variants of: B1; experiment: FACS-Seq fitted mean relative fluorescence mCherry/BFP without ligand (log10 relative fluorescence); ligand: hypoxanthine (xanthine aptamer); higher = higher reporter protein expression; conditions: HEK293T, ligand present: no
How it was run: (§1)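 HEK293T libraries were made by lentiviral transduction with a ribozyme-switch mCherry reporter and an EF1α-BFP marker, enriched, and incubated with or without ligand for 48 h. Cells were sorted into 6 mCherry/BFP bins, and each bin's genomic DNA was PCR-amplified, barcoded and run on MiSeq. Fluorescence was derived by normal fitting of the bin counts. The fitted log10(mCherry/BFP) mean was scaled to five spiked-in control ribozymes.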

hypoxanthine [2] = variants of: B1; experiment: normalized RNA/DNA level with ligand (relative to sTRSVctl = 100) (log10 (% of sTRSVctl)); ligand: hypoxanthine (xanthine aptamer); higher = less ribozyme self-cleavage, higher mRNA level; conditions: ligand concentration (+) RNA-Seq: 5 mM, HEK293T, reporter: mCherry (pCS4076), ligand present: yes
Experimental: (§2)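 Hammerhead (sTRSV) ribozyme switch libraries with a ligand aptamer grafted on stem I and a randomized N4-6 loop II, cloned into the 3' UTR of mCherry and transiently transfected into HEK293T cells; RNA-Seq 72 h post transfection with ligand added 1 h before transfection; RNA read count / plasmid DNA read count normalized to the non-cleaving sTRSVctl (x100), log10; sequences with >100 DNA reads. FACS-Seq: lentiviral library sorted into 6 bins after 48 h ligand, log-normal fit mean of mCherry/BFP scaled to controls. Printed sequences are partial switch sequences.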

hypoxanthine [3] = variants of: B1; experiment: normalized RNA/DNA level without ligand (relative to sTRSVctl = 100) (log10 (% of sTRSVctl)); ligand: hypoxanthine (xanthine aptamer); higher = less ribozyme self-cleavage, higher mRNA level; conditions: HEK293T, reporter: mCherry (pCS4076), ligand present: no
Experimental: as §2

hypoxanthine [4] = variants of: B1; experiment: FACS-Seq fitted mean relative fluorescence mCherry/BFP with ligand (log10 relative fluorescence); ligand: hypoxanthine (xanthine aptamer); ligand concentration (+) FACS-Seq: 5 mM; higher = higher reporter protein expression; conditions: HEK293T, ligand present: yes
How it was run: as §1

Variant | FACS-Seq fitted mean (log10) (hypoxanthine [1]) | normalized RNA/DNA level with ligand (log10) (hypoxanthine [2]) | normalized RNA/DNA level without ligand (log10) (hypoxanthine [3]) | FACS-Seq fitted mean (log10) (hypoxanthine [4])
AACGAA | -0.1232 ± 0.00029 | 1.88 ± 0.068 | 1.67 ± 0.042 | -0.425 ± 0.21
AACGAG | 0.131 ± 0.0019 | 1.75 ± 0.031 | 1.22 ± 0.062 | 0.553 ± 0.084
UACAGC | 0.821 ± 0.21 | 1.96 ± 0.019 | 1.898 ± 0.013 | 0.655 ± 0.12
UACAGG | 0.231 ± 0.044 | 1.838 ± 0.014 | 1.41 ± 0.035 | 0.661 ± 0.032
CACGUA | 0.4515 ± 0.0024 | 1.9 ± 0.016 | 1.784 ± 0.0067 | 0.594 ± 0.022
AACUGG | 0.285 ± 0.031 | 1.7871 ± 0.0011 | 1.42 ± 0.039 | 0.67312 ± 0.00058
AACUGA | -0.0809 ± 0.032 | 1.94 ± 0.035 | 1.716 ± 0.012 | -0.204 ± 0.016
AACUGC | 0.74 ± 0.033 | 1.91 ± 0.053 | 1.87 ± 0.025 | 0.697 ± 0.048
AACUGU | 0.343 ± 0.028 | 1.89 ± 0.027 | 1.72 ± 0.014 | 0.538 ± 0.014
UAGCAA | 0.0307 ± 0.043 | 1.9 ± 0.026 | 1.739 ± 0.0055 | 0.155 ± 0.024
AACUAC | 0.621 ± 0.011 | 1.922 ± 0.014 | 1.841 ± 0.0075 | 0.653 ± 0.028
AACUAU | 0.469 ± 0.04 | 1.9 ± 0.041 | 1.787 ± 0.012 | 0.51 ± 0.053
AACUAG | 0.232 ± 0.032 | 1.819 ± 0.011 | 1.473 ± 0.0054 | 0.521 ± 0.045
AACUAA | 0.536 ± 0.12 | 1.937 ± 0.014 | 1.81 ± 0.035 | 0.663 ± 0.043
UACUUU | 0.0654 ± 0.07 | 1.97 ± 0.038 | 1.921 ± 0.0072 | 0.288 ± 0.041
AAGACA | 0.332 ± 0.067 | 1.93 ± 0.067 | 1.675 ± 0.012 | 0.559 ± 0.0087
AAGACC | 0.483 ± 0.015 | 1.94 ± 0.029 | 1.9 ± 0.027 | 0.305 ± 0.21
AAGACG | -0.0743 ± 0.0055 | 1.67 ± 0.077 | 1.17 ± 0.027 | 0.587 ± 0.028

Variant | FACS-Seq fitted mean (log10) (hypoxanthine [1]) | normalized RNA/DNA level with ligand (log10) (hypoxanthine [2]) | normalized RNA/DNA level without ligand (log10) (hypoxanthine [3]) | FACS-Seq fitted mean (log10) (hypoxanthine [4])
AAGAUU | -0.294 ± 0.047 | 1.9382 ± 0.00039 | 1.805 ± 0.016 | 0.11 ± 0.042
AAGAUA | 0.32 ± 0.064 | 1.89 ± 0.031 | 1.63 ± 0.022 | 0.339 ± 0.1
AAGAUG | 0.0294 ± 0.013 | 1.64 ± 0.087 | 1.09 ± 0.045 | 0.578 ± 0.025
AAGAUC | 0.614 ± 0.031 | 1.973 ± 0.0076 | 1.92 ± 0.043 | 0.556 ± 0.033
GAGAGC | 0.164 ± 0.036 | 1.8 ± 0.033 | 1.27 ± 0.072 | 0.494 ± 0.031
GAGAGG | 0.00193 ± 0.027 | 1.45 ± 0.017 | 1.01 ± 0.1 | 0.644 ± 0.032
GAGAGA | 0.257 ± 0.028 | 1.81 ± 0.02 | 1.34 ± 0.042 | 0.585 ± 0.043
AACUUG | 0.597 ± 0.037 | 1.87 ± 0.027 | 1.54 ± 0.03 | 0.726 ± 0.1
AACUUU | 0.233 ± 0.078 | 1.92 ± 0.038 | 1.9 ± 0.058 | 0.348 ± 0.087
AACUUA | 0.394 ± 0.02 | 1.9 ± 0.021 | 1.857 ± 0.013 | 0.581 ± 0.02
GACAUA | 0.382 ± 0.011 | 1.91 ± 0.027 | 1.79 ± 0.027 | 0.373 ± 0.037
GACAUG | 0.405 ± 0.11 | 1.81 ± 0.032 | 1.4 ± 0.0058 | 0.472 ± 0.081
AACUCG | 0.382 ± 0.056 | 1.92 ± 0.033 | 1.582 ± 0.0054 | 0.644 ± 0.022
CACGGU | 0.663 ± 0.025 | 1.869 ± 0.0027 | 1.758 ± 0.0045 | 0.669 ± 0.15
AAGAGU | 0.323 ± 0.065 | 1.81 ± 0.025 | 1.4 ± 0.047 | 0.664 ± 0.051
AAGAGG | -0.185 ± 0.01 | 1.43 ± 0.017 | 1.065 ± 0.0061 | 0.478 ± 0.048
AAGAGA | 0.1774 ± 0.00084 | 1.8 ± 0.047 | 1.25 ± 0.055 | 0.598 ± 0.033
CAGACA | 0.574 ± 0.043 | 1.96 ± 0.032 | 1.75 ± 0.045 | 0.74 ± 0.064

Reference: the supplement of paper PMC6757056
